Reference: PMC6377630, “NapM enhances the survival of Mycobacterium tuberculosis under stress and in macrophages” (Communications Biology, 2019)

What was measured:
[1] = test system: NapM (Mycobacterium tuberculosis H37Ra); test: EMSA; conditions: pH and temperature not stated
[2] = test system: DnaA (Mycobacterium tuberculosis H37Ra); test: EMSA; conditions: pH and temperature not stated

Q: How did the Kd [1] turn out when oriC fragment was run?
A: 0.458 µM

Q: What about the Kd [2] of the same substance?
A: 0.0605 µM
